{
  "source": "patent US20170066801A1",
  "about": "“ALPHA3BETA HYDROGEN BOND SURROGATE MACROCYCLES AS MODULATORS OF RAS” (NEW YORK UNIVERSITY, priority 2014, published 2017)",
  "key": {"[1]": {"target": "T1, HRas^(1-166) (Homo sapiens, UniProt P01112)", "T1 construct": "6×His-tagged HRas WT 1-166; made in house", "test": "In vitro pulldown binding assay with 6×His-tagged HRas 1-166 and fluorescein-tagged SOS peptides", "conditions": "fluorescein-tagged peptides, 4° C., 1 hour", "protocol": "Recombinantly purified 6×His-tagged HRas WT 1-166 was incubated with Ni-NTA sepharose beads, generating recombinant Ras on solid support. FITC labeled HBS peptides were incubated in the presence of recombinant HRas-6×His/Ni-NTA Sepharose complex at 4° C. for 1 hour. Beads complexes were pelleted and washed 5× with protein buffer (20 mM Tris-HCl pH 7.6, 50 mM NaCl, 4 mM EDTA, 10 mM MgCl2), resuspended in reducing buffer (126 mM Tris-HCL pH 6.8, 20% glycerol, 4% SDS, 0.02% bromophenol blue, 2.5% β-mercaptoethanol), boiled for 10 minutes at 95° C., and subjected to SDS-PAGE with an acrylamide percentage of 20% to allow for sufficient resolution of the HBS helices. SDS-PAGE gels were imaged using an ImageQuant™ LAS 4000 biomolecular imager (GE Healthcare, Piscataway, N.J., USA). Quantification of fluorescence by FITC-HBS helices in gel was determined by manufacturer provided ImageQuant™ TL software. Raw values were normalized to total input and plotted on a semilog graph with GraphPad Prism version 6.00 for OSX (GraphPad Software, La Jolla Calif. USA, www.graphpad.com).\nThe binding affinity of the designed compounds for Ras was determined using in vitro pulldown assays with recombinantly purified 6×His-tagged HRas^(1-166) and fluorescein-tagged SOS peptides (FIGS. 8 and 9, and Table 2). […]"}, "[2]": {"target": "6×His-tagged HRas WT 1-166 (UniProt P01112)", "test": "in vitro pull-down: fluorescein-tagged peptide on 6×His-HRas 1-166 / Ni-NTA beads, in-gel fluorescence"}},
  "note": "Non-standard residues stand in square brackets, D forms with d. Residues, ends and D or L forms follow the SMILES beside them. No end group written: not given here. β3hI = CC[C@H](C)[C@H](N)CC(=O)O; β3hE = N[C@@H](CCC(=O)O)CC(=O)O; β3hA = C[C@H](N)CC(=O)O; Flu = fluorescein",
  "data": [
    {"molecule": "CC[C@H](C)[C@@H](CC(=O)N[C@@H](Cc1ccc(O)cc1)C(=O)N[C@@H](CCCNC(=N)N)C(=O)N[C@@H](CC(C)C)C(=O)N[C@@H](CCC(=O)O)CC(=O)N[C@@H](CC(C)C)C(=O)N[C@@H](CC(C)C)C(=O)N[C@@H](CCCCN)C(=O)N[C@@H](C)CC(=O)N[C@@H](CCC(=O)O)C(=O)N[C@@H](CCC(=O)O)C(=O)N[C@@H](C)C(=O)N[C@@H](CC(N)=O)C(N)=O)NC(=O)CNC(=O)[C@H](CCC(=O)O)NC(=O)[C@H](Cc1ccccc1)NC(C)=O", "note": "[α3β-UNCSOS, Ac-FEGiYRLeLLKaEEAN-NH2] (Ac-FEG[β3hI]YRL[β3hE]LLK[β3hA]EEAN-NH2)", "values": [
      {"measurement": "Kd", "setting": "[1]", "value": "30.6 ± 12", "unit": "µM"}
    ]},
    {"molecule": "FEGIYRLELLKAEEAN (not fully specified; also: hydrogen bond surrogate macrocycle at N-terminus, fluorescein tag, site and linker not given here)", "note": "[α-HBSSOS (fluorescein-tagged)]", "values": [
      {"measurement": "Kd", "setting": "[2]", "value": 7.75, "unit": "µM"}
    ]},
    {"molecule": "Ac-FEG[β3hI]YRL[β3hE]LLK[β3hA]EEANK(Flu)-NH2 (not fully specified (residue 3); printed as Ac-FEG*iYRLeLLKaEEANK(Flu)-NH2)", "note": "[α3β-UNCSOS-Flu]", "values": [
      {"measurement": "fold weaker affinity than α3β-HBSSOS", "setting": "[2]", "value": 136, "unit": "fold"}
    ]}
  ]
}
